Values belong to the molecule of their own block, whether it stands above or below them. Non-standard residues stand in square brackets, D forms with d. No end group written: not given here. pS = N[C@@H](COP(=O)(O)O)C(=O)O
What was measured:
Chk1 = Chk1 (UniProt P34208); test: biotin-peptide streptavidin pull-down, Coomassie or immunoblot
[1] = biological target: Crb2(67–85)pS80 peptide (S. pombe) (UniProt P87074); test: pull-down; Same peptide pull-down repeated; eluates and serial dilutions of Chk1-YFH input examined by immunoblotting with an anti-GFP antibody
[2] = biological target: Crb2(67–85) peptide, unphosphorylated (S. pombe) (UniProt P87074); test: as above
[3] = biological target: Crb2(67–85)pT73 peptide (S. pombe) (UniProt P87074); test: as above
[4] = biological target: Crb2(67–85)pT73pS80 peptide (S. pombe) (UniProt P87074); test: as above
[5] = biological target: Crb2(67–85)pT73pS80 peptide (S. pombe) (UniProt P87074); test: pull-down; Eluted Chk1-YFH incubated with 2 µg biotin-labeled peptide at 4°C for 2 h, peptides captured on streptavidin Dynabeads M-280, washed with lysis buffer (50 mM Hepes pH 7.5, 100 mM NaCl, 1 mM EDTA, 10% glycerol, 0.05% NP-40); eluates and input on 4%–20% SDS-PAGE, Coomassie staining
His-GST-Crb2(521–778) = biological target: T1, His-GST-Crb2(521–778) (S. pombe, UniProt P87074 521-778); test: pull-down; His-GST-Crb2(521–778) incubated with H2A peptides, peptides pulled down by streptavidin Dynabeads, eluted by boiling in SDS loading buffer; 4%–20% SDS-PAGE, Coomassie staining; settings: both partners purified
T1 construct: Crb2, S. pombe, residues 521-778 (the BRCT domains); also called BRCTs in Crb2; source: E. coli, purified with Ni-NTA beads; not shown: His, N-terminal, kept; GST, N-terminal, kept
T1 sequence (looked up): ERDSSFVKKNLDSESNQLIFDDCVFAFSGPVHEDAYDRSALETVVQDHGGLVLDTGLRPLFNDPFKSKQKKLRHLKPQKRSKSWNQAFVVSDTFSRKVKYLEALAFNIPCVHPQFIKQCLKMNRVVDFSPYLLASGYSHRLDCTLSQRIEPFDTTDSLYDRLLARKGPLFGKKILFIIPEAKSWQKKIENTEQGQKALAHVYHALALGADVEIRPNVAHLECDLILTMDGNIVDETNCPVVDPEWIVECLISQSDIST

other: share of Chk1 input pulled down (Chk1; reference: unphosphorylated peptide, sites S80): gained; reference lower than 0.08%
Molecule: Crb2 67-85 (from UniProt P87074) pS80 peptide

other: share of Chk1 input pulled down (Chk1; reference: unphosphorylated peptide, sites T73): gained; reference lower than 0.08%
Molecule: Crb2 67-85 (from UniProt P87074) pT73 peptide

other: share of Chk1 input pulled down (Chk1; reference: pS80 peptide, sites T73): stronger; reference about 1%
other: share of Chk1 input pulled down (Chk1; reference: pT73 peptide, sites S80): same; reference about 7%
Molecule: Crb2 67-85 (from UniProt P87074) pT73pS80 peptide

percent of input pulled down (% of the input) [1]: 1
percent of input pulled down (% of the input) [2]: < 0.08
percent of input pulled down (% of the input) [3]: 7
percent of input pulled down (% of the input) [4]: 7
percent of input pulled down (% of the input) [5]: > 5
Molecule: YFP-Flag-His6 (YFH)-tagged Chk1 (from UniProt P34208 1-496) (enzyme)

binding result (His-GST-Crb2(521–778)): binds
B1: Hta1(120–132-pS129) peptide (peptide, UniProt P04909 120-132, looked up)
peptide: KTSGRTGKP[pS]QEL
notes: Histone H2A Hta1, S. pombe, residues 120-132; also called γH2A peptide; phosphorylated histone H2A peptide

From article PMC3390401, “Phosphorylation-Dependent Interactions between Crb2 and Chk1 Are Essential for DNA Damage Checkpoint” (PLoS Genetics, 2012)
